Reference: US20040253587A1
“And” between values parts separate entries of the source, which are not always exact repeats. Identical values can stand only once.

Each substance was assayed against IL-15 receptor complex on CTLL-2 cells (assay: cell-based or functional assay).

CTLL Inhibition Assay units/ml (Antagonist Activity)	concentration of antagonist required to neutralize 40 pg/ml IL-15 in CTLL inhibition assay	Substance
220000 units/ml	–	IL-15-D56S (from UniProt P40933 49-162) (ligand)
2e+06 units/ml and 5e+06 units/ml	–	IL-15-D56C (from UniProt P40933 49-162) (ligand)
279 units/ml	–	IL-15 (from UniProt P40933 49-162) (ligand)
3e+06 units/ml	–	IL-15-Q156C (from UniProt P40933 49-162) (ligand)
200000 units/ml	–	IL-15-D56C-Q156C (from UniProt P40933 49-162) (ligand)
700000 units/ml	–	IL-15-D56C-Q156S (from UniProt P40933 49-162) (ligand)
1.5e+06 units/ml	–	IL-15-Q156S (from UniProt P40933 49-162) (ligand)
7.96e+06 units/ml	7.7 ng/mL	PEG-IL-15-D56C (from UniProt P40933 49-162) (ligand)
720000 units/ml	–	IL-15-D56S-Q156S (from UniProt P40933 49-162) (ligand)
